{"source": "paper PMC8994484", "biological_target": "ofCP (Olindias formosa)", "assay": "SEC", "data": [{"substance": "ofCP (natural protein)", "values": [{"measurement": "stoichiometry N", "result": 2}]}]}
